# Data published in patent US20040147436A1.
# Tests used:
# [1] = tested on: T1, dBN(64-56) FVIII derivative
# T1 sequence: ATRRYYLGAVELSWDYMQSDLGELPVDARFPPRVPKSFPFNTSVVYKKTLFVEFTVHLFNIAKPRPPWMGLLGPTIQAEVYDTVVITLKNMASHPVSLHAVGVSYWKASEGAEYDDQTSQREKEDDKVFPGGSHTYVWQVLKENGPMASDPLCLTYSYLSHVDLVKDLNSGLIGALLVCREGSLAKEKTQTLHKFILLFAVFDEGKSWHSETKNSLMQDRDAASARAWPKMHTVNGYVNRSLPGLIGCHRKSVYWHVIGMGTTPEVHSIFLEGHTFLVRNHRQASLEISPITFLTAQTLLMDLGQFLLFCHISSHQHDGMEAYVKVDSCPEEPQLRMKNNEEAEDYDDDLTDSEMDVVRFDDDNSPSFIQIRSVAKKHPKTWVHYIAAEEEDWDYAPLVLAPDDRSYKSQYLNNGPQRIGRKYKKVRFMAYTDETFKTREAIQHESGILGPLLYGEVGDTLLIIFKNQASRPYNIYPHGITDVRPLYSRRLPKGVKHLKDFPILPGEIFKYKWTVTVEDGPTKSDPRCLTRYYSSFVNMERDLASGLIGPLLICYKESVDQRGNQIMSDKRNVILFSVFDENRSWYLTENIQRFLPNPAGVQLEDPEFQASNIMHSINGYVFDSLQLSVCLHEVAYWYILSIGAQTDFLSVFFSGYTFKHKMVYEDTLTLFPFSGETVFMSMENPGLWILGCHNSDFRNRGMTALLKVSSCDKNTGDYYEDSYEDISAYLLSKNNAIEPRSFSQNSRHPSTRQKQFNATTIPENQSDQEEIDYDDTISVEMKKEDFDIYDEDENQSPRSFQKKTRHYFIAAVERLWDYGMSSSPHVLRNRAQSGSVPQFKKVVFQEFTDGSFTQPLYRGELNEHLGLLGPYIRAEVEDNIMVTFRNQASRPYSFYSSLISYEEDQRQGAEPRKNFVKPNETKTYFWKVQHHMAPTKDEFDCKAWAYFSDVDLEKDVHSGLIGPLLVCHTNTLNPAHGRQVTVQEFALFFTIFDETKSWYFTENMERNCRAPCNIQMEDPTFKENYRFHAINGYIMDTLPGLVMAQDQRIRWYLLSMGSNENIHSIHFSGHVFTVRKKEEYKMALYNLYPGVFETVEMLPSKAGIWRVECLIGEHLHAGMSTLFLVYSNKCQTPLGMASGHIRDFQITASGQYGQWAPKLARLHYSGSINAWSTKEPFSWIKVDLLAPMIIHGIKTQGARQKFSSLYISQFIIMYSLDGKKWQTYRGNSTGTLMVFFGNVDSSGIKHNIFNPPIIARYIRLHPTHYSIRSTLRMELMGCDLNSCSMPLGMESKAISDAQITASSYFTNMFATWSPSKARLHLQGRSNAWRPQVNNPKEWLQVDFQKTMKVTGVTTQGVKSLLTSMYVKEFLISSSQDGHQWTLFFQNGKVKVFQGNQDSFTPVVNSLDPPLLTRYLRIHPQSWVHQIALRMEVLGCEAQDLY
# [2] = tested on: T2, dBN(64-53) FVIII derivative
# T2 sequence: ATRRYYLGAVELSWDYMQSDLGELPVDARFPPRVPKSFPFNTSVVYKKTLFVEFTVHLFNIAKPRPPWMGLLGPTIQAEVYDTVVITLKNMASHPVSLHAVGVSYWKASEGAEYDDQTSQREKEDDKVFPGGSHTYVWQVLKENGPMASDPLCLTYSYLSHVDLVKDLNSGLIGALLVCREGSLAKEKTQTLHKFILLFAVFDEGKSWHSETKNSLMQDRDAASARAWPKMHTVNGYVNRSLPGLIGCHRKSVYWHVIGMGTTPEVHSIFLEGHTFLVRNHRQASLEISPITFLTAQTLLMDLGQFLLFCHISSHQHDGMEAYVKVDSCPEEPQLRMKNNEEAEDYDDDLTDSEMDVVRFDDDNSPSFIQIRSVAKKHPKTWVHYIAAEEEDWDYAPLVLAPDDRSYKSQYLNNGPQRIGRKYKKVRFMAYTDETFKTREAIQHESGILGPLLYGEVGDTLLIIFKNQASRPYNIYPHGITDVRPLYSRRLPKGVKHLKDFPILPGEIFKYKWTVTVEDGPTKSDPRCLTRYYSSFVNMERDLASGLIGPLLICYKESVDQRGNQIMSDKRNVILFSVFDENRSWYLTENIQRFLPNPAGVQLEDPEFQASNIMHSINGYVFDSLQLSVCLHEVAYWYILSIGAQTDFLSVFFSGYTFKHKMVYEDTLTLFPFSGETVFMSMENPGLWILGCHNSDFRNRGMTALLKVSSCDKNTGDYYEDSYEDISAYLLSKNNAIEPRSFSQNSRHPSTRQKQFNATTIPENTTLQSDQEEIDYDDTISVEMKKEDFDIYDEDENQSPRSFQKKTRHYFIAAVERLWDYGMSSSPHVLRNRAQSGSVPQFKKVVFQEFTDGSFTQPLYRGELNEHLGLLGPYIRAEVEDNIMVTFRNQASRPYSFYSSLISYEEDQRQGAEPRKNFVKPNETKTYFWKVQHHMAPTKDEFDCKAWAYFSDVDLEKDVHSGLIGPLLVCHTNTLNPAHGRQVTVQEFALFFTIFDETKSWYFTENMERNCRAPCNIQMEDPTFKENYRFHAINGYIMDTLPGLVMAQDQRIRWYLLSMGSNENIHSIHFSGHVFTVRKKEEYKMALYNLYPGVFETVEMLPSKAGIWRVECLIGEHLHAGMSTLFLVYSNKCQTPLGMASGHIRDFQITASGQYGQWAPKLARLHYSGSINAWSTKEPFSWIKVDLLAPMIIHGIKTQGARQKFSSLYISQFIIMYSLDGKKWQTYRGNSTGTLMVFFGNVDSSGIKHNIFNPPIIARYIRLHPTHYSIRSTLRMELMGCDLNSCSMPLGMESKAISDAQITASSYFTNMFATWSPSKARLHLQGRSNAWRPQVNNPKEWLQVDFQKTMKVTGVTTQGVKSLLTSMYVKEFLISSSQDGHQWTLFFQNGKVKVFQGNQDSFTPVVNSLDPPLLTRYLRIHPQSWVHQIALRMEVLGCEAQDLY
# Some FVIII derivatives = test: cell-based or functional assay
Substance,"activation by thrombin, measured in a classical coagulation test (APTT) [1]","thrombin cleavage of 35S-labeled immunoprecipitated protein, SDS-PAGE (FVIII derivatives)","activation by thrombin, measured in a classical coagulation test (APTT) [2]","activation by thrombin, measured in a classical coagulation test (APTT) (Some FVIII derivatives) [fold]"
thrombin,are activated in the same manner as rh FVIII,"Analysis of the radiolabeled protein after thrombin digestion indicated a normal appearance of the 73 kD, and 50 and 40 kd fragments",are activated in the same manner as rh FVIII,
thrombin (enzyme),,,,7
